B1: Ribonuclease, P00648 (parent)
chain: MMKMEGIALKKRLSWISVCLLVLVSAAGMLFSTAAKTETSSHKAHTEAQVINTFDGVADYLQTYHKLPDNYITKSEAQALGWVASKGNLADVAPGKSIGGDIFSNREGKLPGKSGRTWREADINYTSGFRNSDRILYSSDWLIYKTTDHYQTFTKIR

Variants of: B1
Settings: Bacillus amyloliquefaciens, pH 6.3, 25 °C, Urea, MES 100 mM, reversible: yes, structure 1BNI, whole UniProt chain shown

Variant	ddG of mutation (higher = less stable) (Fluorescence)	denaturant m value (Fluorescence)	denaturant midpoint (higher = more stable) (Fluorescence)	ddG of mutation (higher = less stable) (CD)	denaturant m value (CD)	denaturant midpoint (higher = more stable) (CD)
D122N	4.8 kcal/mol	1.69 kcal/mol/M	2.08 M			
R116K				3.13 kcal/mol	1.89 kcal/mol/M	2.94 M
R116S	2.72 kcal/mol	1.86 kcal/mol/M	3.16 M			
R116M	2.12 kcal/mol	2.14 kcal/mol/M	3.47 M			
D140N	4.11 kcal/mol	1.99 kcal/mol/M	2.44 M			
R130K	4.13 kcal/mol	1.68 kcal/mol/M	2.43 M			
R130Q	2.05 kcal/mol	2.28 kcal/mol/M	3.51 M			

Reference: FireProtDB (doi:10.1021/bi952930e)
